# Entries after “also recorded” stand apart in the source; their conditions may differ.
# B1: CCmut3: modified Bcr-Abl coiled-coil domain (residues 1-72) with mutations C38A, K39E, S41R, L45D, E48R, Q60E (protein)
# chain: MVDPVGFAEAWKAQFPDSEPPRMELRSVGDIEQELERAEARIRRDEQRVNQERFRMIYLETLLAKEKKSYDR
# Tests used:
# Format in all cases: cell-based, mouse
# [1] = tested on: Ba/F3 cells expressing BCR-ABL1E255V/T315I; assay: Proliferation of transfected Ba/F3 BCR-ABL1 E255V/T315I cells (MTS assay); settings: MTS assay at 72 and 96 h, CCmut3 vs EV
# Experimental: Stable recombinant Ba/F3 cells transduced with wild type p210 BCR-ABL1 (Daley, G. Q., et al. (1991) Proc. Natl. Acad. Sci. U.S.A. 88, 11335-11338), the kinase domain mutants p210^T315I p210^[…], or the compound mutant p210^E255V/T315I were as previously described (La Rosee, P., et al. (2002) Cancer Res. 62, 7149-7153; O'Hare, T., et al. (2004) Blood 104, 2532-2539). These cells were cultured in RPMI with 10% FBS, 1% penicillin, streptomycin, glutamine, and 0.1% gentamycin (RPMI1640). Additionally 0.1% MycoZap™ (Lonza Bio, Basel, Switzerland) was added to prevent mycoplasma contamination. […]
# Cell proliferation was assessed using the CellTiter 96® AQueous One Solution Cell Proliferation Assay (MTS assay, Promega) according to manufacturer instructions. […] In some experiments, cell proliferation was assessed using a Neubauer chamber and trypan blue dye exclusion. […]
# Cell proliferation was assessed using a […] viability assay (MTS assay) utilizing CellTiter 96® AQueous One Solution Cell Proliferation Assay (Promega) according to manufacturer instructions. […] Cell growth was assessed by MTS assay at 72 and 96 h. […] In patient sample experiments, cell proliferation was assessed by trypan blue exclusion.
# parental Ba/F3 cells = assay: Colony forming assay of transfected parental Ba/F3 cells; settings: CCmut3 vs EV
# Experimental: (§1) Both EGFP and EGFP-CC^mut3 were transfected into separate groups of cells on day 0. One day following transfection, 1.0×10^6 cells per treatment group were collected and re-suspended in 1.0 mL of PBS. Through serial dilutions, 1.0×10^3 cells in IMDM (Isocove's modified Dulbecco's media) with 2% FBS were seeded into methylcellulose medium in the absence of cytokines (MethoCult H4230 for K562 cells and MethoCult M3234 for p210 and p210-T315I cells) or in the presence of cytokines (MethoCult GF M3434 for parental Ba/F3 cells). Ponatinib was then added in the correct molar amounts (0, 100 pM, 1 nM, or 10 nM) to the methylcellulose medium. Colonies formed were counted after 7 days of incubation. All reagents were purchased from Stem Cell Technologies, Vancouver, BC, Canada. Assay was run three separate times (n=3) in duplicate.
# Following selection of transfected cells by cell sorting, viable cells were enumerated and seeded into methylcellulose as described previously (Dixon, A. S., et al. (2011) J. Biol. Chem. 286, 27751-27760). Briefly, mCherry-positive Ba/F3 cells were re-suspended in IMDM with 2% FBS (Stem Cell Technologies) at a concentration of 10,000 cells/mL. […] Colonies were counted 7 days later in an area of […] per dish. […]
# Ba/F3-p210-T315I cells = assay: Colony forming assay of Ba/F3 BCR-ABL1 T315I cells; settings: for colony formation, in words: CCmut3 gene delivery (transfection; b502 lentiviral infection) vs EV; for reduction in CFCs / colony forming ability: CCmut3 vs EV
# Experimental: as §1
# Briefly, mCherry-positive Ba/F3 cells were re-suspended in IMDM with 2% FBS (Stem Cell Technologies) at a concentration of 10,000 cells/mL. Three hundred microliters of this dilution was added to 3 mL of Methocult media (M3434—Ba/F3 p210 wild-type and mutant lines or M3234—Ba/F3 parental, Stem Cell Technologies). Approximately 1100 cells, or 1.2 mL, were seeded per dish in duplicate for each transfection. Colonies were counted 7 days later in an area of 100 μm^2 per dish.
# All cells were plated with or without the indicated TKI in three or more independent experiments. Plates were incubated at 37° C. in a 5% CO2 humidified incubator. Colonies were counted 7-14 days later in an area of 50 μm2 per dish using an inverted microscope.
molecule,measurement,setting,value
B1,"proliferation, in words",[1],small yet significant growth reduction at 96 h but not 72 h; also recorded: significantly reduced proliferation of compound mutant cells at 96 h
same,"proliferation, in words",[1]; listed as CC^mut3,significant growth reduction at 96 h; also recorded: smaller yet significant reduction in proliferation at 96 h
same,"colony formation, in words",parental Ba/F3 cells,not affected; also recorded: no effect on parental Ba/F3 controls
same,"colony formation, in words",parental Ba/F3 cells; listed as CC^mut3,not affected; also recorded: no difference between treatment groups
same,reduction of transformative ability compared to EGFP control,"Ba/F3-p210-T315I cells; CC^mut3 alone, Ba/F3-p210-T315I",~40%
same,"colony formation, in words",Ba/F3-p210-T315I cells,significantly fewer colonies per unit area
same,"colony formation, in words",Ba/F3-p210-T315I cells; listed as CC^mut3,Inhibition in colony formation
same,reduction in CFCs / colony forming ability,Ba/F3-p210-T315I cells,> 10 fold
same,reduction in CFCs / colony forming ability,Ba/F3-p210-T315I cells; listed as CC^mut3,more than 10 fold

# From patent publication US10494417B2, “Peptide inhibitors of BCR-ABL oligomerization” (University of Utah Research Foundation, priority 2014, dated 2019)
